# In patent publication US20030216297A1, “Pharmaceutical composition” (SANKYO COMPANY, LIMITED, priority 2002, published 2003):
# How the values were obtained:
# [1] = Degree of adsorption to a heparin cross-linked column; type: physicochemical; details: applied and washed with 0.7 M NaCl, eluted with 2 M NaCl in 10 mM sodium phosphate buffer; OCIF by ELISA
# Description: A preferred feature of the complexes used in the present invention that can be used to characterise them is their affinity to heparin. Heparin is a polysaccharide comprising D-glucosamine, D-glucuronic acid and D-iduronic acid which is partially or fully derivatised with sulfate and acetyl groups. A preferred feature of the complexes employed in the present invention is that the strength of adsorption of said complex of OCIF or an anlogue or variant thereof to heparin is lower than the strength of adsorption of the free, non-complexed OCIF or analogue or variant thereof. The degree of adsorption can be determined using a column packed with highly cross-linked. linked agarose beads on which has been immobilized heparin (e.g. heparin obtained from bovine intestinal mucosa). Suitable columns of this type include HiTrap heparin HP column, HiPrep 16/10 Heparin and Heparin Sepharose (all obtainable from Amersham Pharmacia). The strength of adsorption (the affinity) of the complex can be determined according to any suitable method that is well known to the person skilled in the art for determining the affinity of proteins to polysaccharides. […] Thus, typically the degree of adsorption of the complex to heparin can be determined as follows:
# (a) A column packed with a support such as cross-linked agarose beads on which has been immobilized heparin is equilibrated with a buffer having a relatively low ionic strength (e.g. sodium phosphate buffer containing 0.1-0.8 M sodium chloride).
# (b) The complex of the present invention that is being tested is dissolved in the same low ionic strength buffer as used in (a) and applied to the column and a first eluate is then collected (fraction A).
# (c) The column is then washed further with the same low ionic strength buffer as used in step (a) and a second eluate is collected (fraction B).
# (d) The column is then washed with a buffer having a relatively high ionic strength (e.g. sodium phosphate buffer containing 1.0-2.0 M sodium chloride) and a third eluate is then collected (fraction C).
# (e) The amount of the complex present in each of fractions A, B and C [designated (α), (β) and (γ) respectively] is then determined (e.g. by an immunoassay).
# (f) The degree of adsorption of the complex to heparin is then determined according to the following formula: [formula]
# The degree of adsorption of the complexes of the present invention as measured by the above formula will vary to some extent depending upon the type of heparin column and the conditions under which the determination is carried out.
# A heparin cross-linked column (HiTrap Heparin HP column, Lot. 289212, Amersham Bioscience) was pre-equilibrated with 5 ml of 10 mM sodium phosphate buffer containing 0.7 M sodium chloride. A preparation from Table 1 of Preparation Example 1 was taken and diluted to a final protein concentration of 0.1 mg/ml with 10 mM sodium phosphate buffer containing 0.7 M sodium chloride. 1 ml of the diluted solution thus obtained was applied to said column and 1 ml of a first eluate was collected (fraction A). Next, 5 ml of 10 mM sodium phosphate buffer containing 0.7 M sodium chloride were applied to said column and 5 ml of a second eluate were collected (fraction B). Finally, 4 ml of 10 mM sodium phosphate buffer containing 2M sodium chloride were applied to said column and 4 ml of an eluate were collected (fraction C).
# 100 μL of 0.1 M sodium hydrogen carbonate (pH 9.6), in which was dissolved an anti-human OCIF monoclonal antibody OI-19 (FERM BP-6420) at a concentration of 10 μg per ml, were transferred to each well of a 96-well microtitre plate (Maxisorp: NUNC Co Ltd.). The plate was sealed and then incubated at 4° C. overnight. At the end of this incubation time, the solution in each well was removed by decantation, 300 μL of 50% Block Ace (purchased from Dainippon Pharmaceutical Co., Ltd.) were added to each well, and then the plate was incubated at room temperature for 2 hours. […]
# [2] = tested on: adjuvant-arthritis Lewis rat; experiment: Adjuvant arthritis in Lewis rats, femur bone mineral density: OCIF complex with loxoprofen sodium; type: in vivo; details: distal ends of femurs, day 21 after adjuvant; loxoprofen sodium 5 mg/kg p.o. and/or Preparation 11 0.1 mg/kg i.p. daily, days 14 to 20
# Method: This example was carried out according to the method described in C. V. Winder, et al. Arthritis Rheum 12 472 (1957). Heat-killed cells of Mycobacterium butyricum were pulverized in an agate mortar and then suspended in liquid paraffin sterilized with hot air to give a suspension having a cellular concentration of 2 mg/ml. This suspension was then subjected to ultrasonication so as to produce an adjuvant. 50 μl of the obtained adjuvant were injected intradermally at each of two sites in the base of the tail of a Lewis rat (eight-weeks old, female) (200 μg in total per rat), to induce arthritis in said rat. […] As a control, instead of the loxoprofen sodium, OCIF complex Preparation 11 or a combination thereof, only the solvents used for dissolving them were administered to the rat. […] The bone mineral densities of the distal ends of the right-and-left femurs were measured using an X-ray measurement apparatus (Dual energy X-ray absorptiometry DCS-600R, manufactured by Aroka Co., Ltd.), and the average of each of the measured values was calculated, and was defined as the bone mineral density of the individual. In order to evaluate the differences between the averages of the bone mineral densities of each group, significant difference was tested by Student's t-test, and the P value was calculated.
# [3] = Measurement of isoelectric point by isoelectric electrophoresis gel; type: physicochemical; details: IEF PAGE mini gel, pH range 3 to 10, compared with pI markers
# Description: The isoelectric point can be measured using any conventional isoelectric electrophoresis technique well-known to the skilled person in the art. OCIF is a basic protein and the isoelectric point thereof is about pI 9. […] Therefore, it is possible to readily distinguish complexed and uncomplexed OCIF using this technique.
# The purified recombinant dimeric human OCIF, prepared as described in Preparation Example 1(a) above and the complex of OCIF and dextran sulfate prepared in Preparation Example 1(b) above which is designated Preparation Number 22 in Table 1 were applied separately to an isoelectric electrophoresis gel IEF PAGE mini (pH range of 3 to 10, manufactured by Iwaki Glass), using an IEF pH 3-7 buffer kit (Technical Frontier Co.) and a voltage was applied to the gel according to the following regime: 100 V for 1 hour, followed by 200 V for 1 hour and finally 500 V for 30 minutes. After completion of the electrophoresis, the resultant gel obtained in each case was stained with Coomassie Blue.
# From the electrophoresis gels obtained above, it was determined that the isoelectric point of the dimeric human OCIF was about pI 9, and the isoelectric point of the complex of OCIF and dextran sulfate designated Preparation Number 22 was about pI 6.5 by comparing the band position of OCIF and that of the OCIF complex with pI markers.
# [4] = tested on: adjuvant-arthritis Lewis rat; experiment: Adjuvant arthritis in Lewis rats, femur bone mineral density: OCIF complex with celecoxib; type: in vivo; details: distal ends of femurs, day 21 after adjuvant; celecoxib 1 mg/kg p.o. and/or Preparation 22 3.5 mg/kg i.p. daily, days 14 to 20
# Method: Arthritis was induced in test groups of Lewis rats (eight-weeks old, female) according to the same procedure described in Example 2 above.
# From the 14th to 20th days after injection of the adjuvant, celecoxib [Thomas D, P., et al., J. Med. Chem., 40, 1347-1365 (1997); WO-A-95/15316] suspended in a 0.5% tragacanth aqueous solution (manufactured by Nihon Funmatsu Yakuhin Co., Ltd.) at a concentration of 0.2 mg/ml was orally administered to each rat of one test group at a rate of 5 ml/kg each day so that the dose of […] administered was 1 mg/kg body weight. […]
# Each rat was dissected on the 21 st day after injection of the adjuvant, and the right-and-left femurs were extracted. The bone mineral densities of the distal ends of the right-and-left femurs were measured using an X-ray measurement apparatus (Dual energy X-ray absorptiometry DCS-600R, manufactured by Aroka Co., Ltd.), and the average of each of the measured values was calculated, and was defined as the bone mineral density of the individual.
# In order to evaluate the differences between the averages of the bone mineral densities of each group, significant difference was tested by Student's t-test, and the P value was calculated.
compound,measurement,setting,value
"Prep. 27: OCIF/DS5 complex: DS5 150 mg/ml, OCIF 5 mg/ml, 4 °C, pH 10.5, 144 h",The degree of adsorption of the OCIF/DS complex to a heparin cross-linked column,[1],0.141
"Prep. 6: OCIF/DS5 complex: DS5 130 mg/ml, OCIF 6.5 mg/ml, 4 °C, pH 10.5, 48 h",The degree of adsorption of the OCIF/DS complex to a heparin cross-linked column,[1],0.451
"Prep. 11: OCIF/DS5 complex: DS5 100 mg/ml, OCIF 5 mg/ml, 4 °C, pH 10.5, 18 h",Bone mineral density (average ± standard error),[2],109.6 ± 2.1 mg/cm^2
"OCIF: recombinant dimeric human osteoclastogenesis inhibitory factor, molecular weight about 120000, non-complexed",isoelectric point (pI),[3],~9
"Prep. 8: OCIF/DS5 complex: DS5 130 mg/ml, OCIF 6.5 mg/ml, 4 °C, pH 10.5, 288 h",The degree of adsorption of the OCIF/DS complex to a heparin cross-linked column,[1],0.153
"Prep. 25: OCIF/DS5 complex: DS5 130 mg/ml, OCIF 6.5 mg/ml, 4 °C, pH 10.5, 24 h",The degree of adsorption of the OCIF/DS complex to a heparin cross-linked column,[1],0.611
"CC(C(=O)O)c1ccc(CC2CCCC2=O)cc1 (stereo not shown) [Loxoprofen sodium, loxoprofen sodium, reference compound]",Bone mineral density (average ± standard error),[2],106.5 ± 0.8 mg/cm^2
"Prep. 7: OCIF/DS5 complex: DS5 130 mg/ml, OCIF 6.5 mg/ml, 4 °C, pH 10.5, 144 h",The degree of adsorption of the OCIF/DS complex to a heparin cross-linked column,[1],0.183
"Prep. 24: OCIF/DS5 complex: DS5 150 mg/ml, OCIF 5 mg/ml, 25 °C, pH 10, 24 h",The degree of adsorption of the OCIF/DS complex to a heparin cross-linked column,[1],0.072
"Prep. 22: OCIF/DS5 complex: DS5 150 mg/ml, OCIF 5 mg/ml, 7 °C, pH 10.5, 168 h",isoelectric point (pI),[3],~6.5
same,The degree of adsorption of the OCIF/DS complex to a heparin cross-linked column,[1],0.264
same,Bone mineral density (average ± standard error),[4],104.2 ± 2.1 mg/cm^2
"Cc1ccc(-c2cc(C(F)(F)F)nn2-c2ccc(S(N)(=O)=O)cc2)cc1 [Celecoxib, celecoxib, reference compound]",Bone mineral density (average ± standard error),[4],103.0 ± 1.8 mg/cm^2
